# Data reported in patent US20150344570A1 (published 2015).
# Target: T1, FcγRIa (human, UniProt P12314 16-292)
# T1 construct: extracellular domain; Soluble extracellular domain expressed in FreeStyle293 cells, used as analyte in Biacore; also called FcgRI; 1a; not shown: His tag attached to the C terminus
# Test: SPR (Biacore); He Ab vs HeCon Ab GpH7-A5/GpH7-B3/GpL16-k0
# Protocol: Analysis of interaction between objective antibody and the FcγR was carried out using Biacore T100 (GE Healthcare). HBS-EP+ (GE Healthcare) was used as the running buffer, and the measurement temperature was set to 25° C. Chips produced by immobilizing the antigen peptide by the amine coupling method to a Series S Sencor Chip CM5 (GE Healthcare), or alternatively, chips produced by allowing preliminarily biotinylated antigen peptides to interact with and immobilize onto a Series S Sensor Chip SA (certified) (GE Healthcare) were used. Antibodies of interest were captured onto an antigen peptide-immobilized chip, and allowed to interact to each FcγR diluted with running buffer. To regenerate and repeatedly use the chip, the antibodies captured on the chip were washed off by reacting 10 mM glycine-HCl, pH 1.5.
# T1 sequence (P12314 16-292): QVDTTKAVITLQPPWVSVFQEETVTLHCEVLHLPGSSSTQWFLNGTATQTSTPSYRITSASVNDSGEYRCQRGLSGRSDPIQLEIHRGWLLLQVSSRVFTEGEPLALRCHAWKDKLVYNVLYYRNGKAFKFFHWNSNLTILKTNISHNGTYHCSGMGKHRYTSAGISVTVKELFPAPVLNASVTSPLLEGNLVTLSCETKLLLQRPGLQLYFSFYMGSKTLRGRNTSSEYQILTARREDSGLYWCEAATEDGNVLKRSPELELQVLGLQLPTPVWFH
row,Binder,He/Con_1a
1,"GpH7-A5/GpH7-B3 variant S298_12R/GpL16-k0 (antibody, human IgG1, kappa, also called He Ab S298_12R) heavy 1: not shown heavy 2: not shown light: DIVMTQSPLSLPVTPGEPASISCQASESLVHSNRNTYLHWYLQKPGQSPQLLIYKVSNRFSGVPDRFSGSGSGTDFTLKISRVEAEDVGVYYCSQNTHVPPTFGQGTKVEIERTVAAPSVFIFPPSDEQLKSGTASVVCLLNNFYPREAKVQWKVDNALQSGNSQESVTEQDSKDSTYSLSSTLTLSKADYEKHKVYACEVTHQGLSSPVTKSFNRGEC","109 relative binding, control = 100"
2,"GpH7-A5/GpH7-B3 variant S324_11K/GpL16-k0 (antibody, human IgG1, kappa, also called He Ab S324_11K) heavy 1: not shown heavy 2: not shown light: DIVMTQSPLSLPVTPGEPASISCQASESLVHSNRNTYLHWYLQKPGQSPQLLIYKVSNRFSGVPDRFSGSGSGTDFTLKISRVEAEDVGVYYCSQNTHVPPTFGQGTKVEIERTVAAPSVFIFPPSDEQLKSGTASVVCLLNNFYPREAKVQWKVDNALQSGNSQESVTEQDSKDSTYSLSSTLTLSKADYEKHKVYACEVTHQGLSSPVTKSFNRGEC","102 relative binding, control = 100"
3,"GpH7-A5/GpH7-B3 variant S298_16H/GpL16-k0 (antibody, human IgG1, kappa, also called He Ab S298_16H) heavy 1: not shown heavy 2: not shown light: DIVMTQSPLSLPVTPGEPASISCQASESLVHSNRNTYLHWYLQKPGQSPQLLIYKVSNRFSGVPDRFSGSGSGTDFTLKISRVEAEDVGVYYCSQNTHVPPTFGQGTKVEIERTVAAPSVFIFPPSDEQLKSGTASVVCLLNNFYPREAKVQWKVDNALQSGNSQESVTEQDSKDSTYSLSSTLTLSKADYEKHKVYACEVTHQGLSSPVTKSFNRGEC","109 relative binding, control = 100"
4,"GpH7-A5/GpH7-B3 variant S337_02A/GpL16-k0 (antibody, human IgG1, kappa, also called He Ab S337_02A) heavy 1: not shown heavy 2: not shown light: DIVMTQSPLSLPVTPGEPASISCQASESLVHSNRNTYLHWYLQKPGQSPQLLIYKVSNRFSGVPDRFSGSGSGTDFTLKISRVEAEDVGVYYCSQNTHVPPTFGQGTKVEIERTVAAPSVFIFPPSDEQLKSGTASVVCLLNNFYPREAKVQWKVDNALQSGNSQESVTEQDSKDSTYSLSSTLTLSKADYEKHKVYACEVTHQGLSSPVTKSFNRGEC","106 relative binding, control = 100"
5,"GpH7-A5/GpH7-B3 variant S324_16H/GpL16-k0 (antibody, human IgG1, kappa, also called He Ab S324_16H) heavy 1: not shown heavy 2: not shown light: DIVMTQSPLSLPVTPGEPASISCQASESLVHSNRNTYLHWYLQKPGQSPQLLIYKVSNRFSGVPDRFSGSGSGTDFTLKISRVEAEDVGVYYCSQNTHVPPTFGQGTKVEIERTVAAPSVFIFPPSDEQLKSGTASVVCLLNNFYPREAKVQWKVDNALQSGNSQESVTEQDSKDSTYSLSSTLTLSKADYEKHKVYACEVTHQGLSSPVTKSFNRGEC","113 relative binding, control = 100"
6,"GpH7-A5/GpH7-B3 variant S298_20W/GpL16-k0 (antibody, human IgG1, kappa, also called He Ab S298_20W) heavy 1: not shown heavy 2: not shown light: DIVMTQSPLSLPVTPGEPASISCQASESLVHSNRNTYLHWYLQKPGQSPQLLIYKVSNRFSGVPDRFSGSGSGTDFTLKISRVEAEDVGVYYCSQNTHVPPTFGQGTKVEIERTVAAPSVFIFPPSDEQLKSGTASVVCLLNNFYPREAKVQWKVDNALQSGNSQESVTEQDSKDSTYSLSSTLTLSKADYEKHKVYACEVTHQGLSSPVTKSFNRGEC","104 relative binding, control = 100"
7,"GpH7-A5/GpH7-B3 variant S337_01G/GpL16-k0 (antibody, human IgG1, kappa, also called He Ab S337_01G) heavy 1: not shown heavy 2: not shown light: DIVMTQSPLSLPVTPGEPASISCQASESLVHSNRNTYLHWYLQKPGQSPQLLIYKVSNRFSGVPDRFSGSGSGTDFTLKISRVEAEDVGVYYCSQNTHVPPTFGQGTKVEIERTVAAPSVFIFPPSDEQLKSGTASVVCLLNNFYPREAKVQWKVDNALQSGNSQESVTEQDSKDSTYSLSSTLTLSKADYEKHKVYACEVTHQGLSSPVTKSFNRGEC","107 relative binding, control = 100"
8,"GpH7-A5/GpH7-B3 variant S324_02A/GpL16-k0 (antibody, human IgG1, kappa, also called He Ab S324_02A) heavy 1: not shown heavy 2: not shown light: DIVMTQSPLSLPVTPGEPASISCQASESLVHSNRNTYLHWYLQKPGQSPQLLIYKVSNRFSGVPDRFSGSGSGTDFTLKISRVEAEDVGVYYCSQNTHVPPTFGQGTKVEIERTVAAPSVFIFPPSDEQLKSGTASVVCLLNNFYPREAKVQWKVDNALQSGNSQESVTEQDSKDSTYSLSSTLTLSKADYEKHKVYACEVTHQGLSSPVTKSFNRGEC","103 relative binding, control = 100"
9,"GpH7-A5/GpH7-B3 variant S324_20W/GpL16-k0 (antibody, human IgG1, kappa, also called He Ab S324_20W) heavy 1: not shown heavy 2: not shown light: DIVMTQSPLSLPVTPGEPASISCQASESLVHSNRNTYLHWYLQKPGQSPQLLIYKVSNRFSGVPDRFSGSGSGTDFTLKISRVEAEDVGVYYCSQNTHVPPTFGQGTKVEIERTVAAPSVFIFPPSDEQLKSGTASVVCLLNNFYPREAKVQWKVDNALQSGNSQESVTEQDSKDSTYSLSSTLTLSKADYEKHKVYACEVTHQGLSSPVTKSFNRGEC","114 relative binding, control = 100"
10,"GpH7-A5/GpH7-B3 variant S324_15Y/GpL16-k0 (antibody, human IgG1, kappa, also called He Ab S324_15Y) heavy 1: not shown heavy 2: not shown light: DIVMTQSPLSLPVTPGEPASISCQASESLVHSNRNTYLHWYLQKPGQSPQLLIYKVSNRFSGVPDRFSGSGSGTDFTLKISRVEAEDVGVYYCSQNTHVPPTFGQGTKVEIERTVAAPSVFIFPPSDEQLKSGTASVVCLLNNFYPREAKVQWKVDNALQSGNSQESVTEQDSKDSTYSLSSTLTLSKADYEKHKVYACEVTHQGLSSPVTKSFNRGEC","114 relative binding, control = 100"
11,"GpH7-A5/GpH7-B3 variant S298_14T/GpL16-k0 (antibody, human IgG1, kappa, also called He Ab S298_14T) heavy 1: not shown heavy 2: not shown light: DIVMTQSPLSLPVTPGEPASISCQASESLVHSNRNTYLHWYLQKPGQSPQLLIYKVSNRFSGVPDRFSGSGSGTDFTLKISRVEAEDVGVYYCSQNTHVPPTFGQGTKVEIERTVAAPSVFIFPPSDEQLKSGTASVVCLLNNFYPREAKVQWKVDNALQSGNSQESVTEQDSKDSTYSLSSTLTLSKADYEKHKVYACEVTHQGLSSPVTKSFNRGEC","107 relative binding, control = 100"
12,"GpH7-A5/GpH7-B3 variant S337_03V/GpL16-k0 (antibody, human IgG1, kappa, also called He Ab S337_03V) heavy 1: not shown heavy 2: not shown light: DIVMTQSPLSLPVTPGEPASISCQASESLVHSNRNTYLHWYLQKPGQSPQLLIYKVSNRFSGVPDRFSGSGSGTDFTLKISRVEAEDVGVYYCSQNTHVPPTFGQGTKVEIERTVAAPSVFIFPPSDEQLKSGTASVVCLLNNFYPREAKVQWKVDNALQSGNSQESVTEQDSKDSTYSLSSTLTLSKADYEKHKVYACEVTHQGLSSPVTKSFNRGEC","107 relative binding, control = 100"
13,"GpH7-A5/GpH7-B3 variant S324_19Q/GpL16-k0 (antibody, human IgG1, kappa, also called He Ab S324_19Q) heavy 1: not shown heavy 2: not shown light: DIVMTQSPLSLPVTPGEPASISCQASESLVHSNRNTYLHWYLQKPGQSPQLLIYKVSNRFSGVPDRFSGSGSGTDFTLKISRVEAEDVGVYYCSQNTHVPPTFGQGTKVEIERTVAAPSVFIFPPSDEQLKSGTASVVCLLNNFYPREAKVQWKVDNALQSGNSQESVTEQDSKDSTYSLSSTLTLSKADYEKHKVYACEVTHQGLSSPVTKSFNRGEC","112 relative binding, control = 100"
14,"GpH7-A5/GpH7-B3 variant S298_19Q/GpL16-k0 (antibody, human IgG1, kappa, also called He Ab S298_19Q) heavy 1: not shown heavy 2: not shown light: DIVMTQSPLSLPVTPGEPASISCQASESLVHSNRNTYLHWYLQKPGQSPQLLIYKVSNRFSGVPDRFSGSGSGTDFTLKISRVEAEDVGVYYCSQNTHVPPTFGQGTKVEIERTVAAPSVFIFPPSDEQLKSGTASVVCLLNNFYPREAKVQWKVDNALQSGNSQESVTEQDSKDSTYSLSSTLTLSKADYEKHKVYACEVTHQGLSSPVTKSFNRGEC","109 relative binding, control = 100"
15,"GpH7-A5/GpH7-B3 variant S324_12R/GpL16-k0 (antibody, human IgG1, kappa, also called He Ab S324_12R) heavy 1: not shown heavy 2: not shown light: DIVMTQSPLSLPVTPGEPASISCQASESLVHSNRNTYLHWYLQKPGQSPQLLIYKVSNRFSGVPDRFSGSGSGTDFTLKISRVEAEDVGVYYCSQNTHVPPTFGQGTKVEIERTVAAPSVFIFPPSDEQLKSGTASVVCLLNNFYPREAKVQWKVDNALQSGNSQESVTEQDSKDSTYSLSSTLTLSKADYEKHKVYACEVTHQGLSSPVTKSFNRGEC","102 relative binding, control = 100"
16,"GpH7-A5/GpH7-B3 variant S298_15Y/GpL16-k0 (antibody, human IgG1, kappa, also called He Ab S298_15Y) heavy 1: not shown heavy 2: not shown light: DIVMTQSPLSLPVTPGEPASISCQASESLVHSNRNTYLHWYLQKPGQSPQLLIYKVSNRFSGVPDRFSGSGSGTDFTLKISRVEAEDVGVYYCSQNTHVPPTFGQGTKVEIERTVAAPSVFIFPPSDEQLKSGTASVVCLLNNFYPREAKVQWKVDNALQSGNSQESVTEQDSKDSTYSLSSTLTLSKADYEKHKVYACEVTHQGLSSPVTKSFNRGEC","107 relative binding, control = 100"
17,"GpH7-A5/GpH7-B3 variant S324_03V/GpL16-k0 (antibody, human IgG1, kappa, also called He Ab S324_03V) heavy 1: not shown heavy 2: not shown light: DIVMTQSPLSLPVTPGEPASISCQASESLVHSNRNTYLHWYLQKPGQSPQLLIYKVSNRFSGVPDRFSGSGSGTDFTLKISRVEAEDVGVYYCSQNTHVPPTFGQGTKVEIERTVAAPSVFIFPPSDEQLKSGTASVVCLLNNFYPREAKVQWKVDNALQSGNSQESVTEQDSKDSTYSLSSTLTLSKADYEKHKVYACEVTHQGLSSPVTKSFNRGEC","104 relative binding, control = 100"
18,"GpH7-A5/GpH7-B3 variant S324_18N/GpL16-k0 (antibody, human IgG1, kappa, also called He Ab S324_18N) heavy 1: not shown heavy 2: not shown light: DIVMTQSPLSLPVTPGEPASISCQASESLVHSNRNTYLHWYLQKPGQSPQLLIYKVSNRFSGVPDRFSGSGSGTDFTLKISRVEAEDVGVYYCSQNTHVPPTFGQGTKVEIERTVAAPSVFIFPPSDEQLKSGTASVVCLLNNFYPREAKVQWKVDNALQSGNSQESVTEQDSKDSTYSLSSTLTLSKADYEKHKVYACEVTHQGLSSPVTKSFNRGEC","116 relative binding, control = 100"
19,"GpH7-A5/GpH7-B3 variant S298_18N/GpL16-k0 (antibody, human IgG1, kappa, also called He Ab S298_18N) heavy 1: not shown heavy 2: not shown light: DIVMTQSPLSLPVTPGEPASISCQASESLVHSNRNTYLHWYLQKPGQSPQLLIYKVSNRFSGVPDRFSGSGSGTDFTLKISRVEAEDVGVYYCSQNTHVPPTFGQGTKVEIERTVAAPSVFIFPPSDEQLKSGTASVVCLLNNFYPREAKVQWKVDNALQSGNSQESVTEQDSKDSTYSLSSTLTLSKADYEKHKVYACEVTHQGLSSPVTKSFNRGEC","108 relative binding, control = 100"
20,"GpH7-A5/GpH7-B3 variant S324_08L/GpL16-k0 (antibody, human IgG1, kappa, also called He Ab S324_08L) heavy 1: not shown heavy 2: not shown light: DIVMTQSPLSLPVTPGEPASISCQASESLVHSNRNTYLHWYLQKPGQSPQLLIYKVSNRFSGVPDRFSGSGSGTDFTLKISRVEAEDVGVYYCSQNTHVPPTFGQGTKVEIERTVAAPSVFIFPPSDEQLKSGTASVVCLLNNFYPREAKVQWKVDNALQSGNSQESVTEQDSKDSTYSLSSTLTLSKADYEKHKVYACEVTHQGLSSPVTKSFNRGEC","103 relative binding, control = 100"
21,"GpH7-A5/GpH7-B3 variant S324_14T/GpL16-k0 (antibody, human IgG1, kappa, also called He Ab S324_14T) heavy 1: not shown heavy 2: not shown light: DIVMTQSPLSLPVTPGEPASISCQASESLVHSNRNTYLHWYLQKPGQSPQLLIYKVSNRFSGVPDRFSGSGSGTDFTLKISRVEAEDVGVYYCSQNTHVPPTFGQGTKVEIERTVAAPSVFIFPPSDEQLKSGTASVVCLLNNFYPREAKVQWKVDNALQSGNSQESVTEQDSKDSTYSLSSTLTLSKADYEKHKVYACEVTHQGLSSPVTKSFNRGEC","121 relative binding, control = 100"
